Patent publication US20230030314A1, “Method for Diagnosing Cancer, Cancer Diagnosis Composition, Cancer Diagnosis Kit, Method for Evaluating State of Cancer, and Method for Screening Agents for Preventing and/or Treating Cancer” (Kyushu University, National University Corporation, priority 2019, published 2023)
Ends that are not written are not given here.

Molecular target: T1, PKCα (Homo sapiens, UniProt P17252)
T1 construct: endogenous in cells; host or cells: KU-1, KU-7, T24, TCCSUP, UMUC-3 bladder cancer cells
Test: Phosphorylation of substrate peptide in bladder cancer-derived culture cells, MALDI-TOF MS
Assay type: biochemical
Settings: bladder cancer-derived culture cells KU-1, KU-7, T24, TCCSUP, UMUC-3 (0.2 mg/ml cells); 30 μM peptide, 100 μM ATP, 37° C., 60 minutes
Procedure: An α-cyano-4-hydroxycinnamic acid (CHCA) matrix (10 mg/ml) was prepared in 50% water/acetonitrile and 0.1% TFA. This matrix and a sample were mixed in a ratio of 20:1. The resultant specimen/matrix mixture in a total volume of 1 μl was applied on a sample plate, and the resultant was crystallized by drying. In this example, Auto Flex Speed manufactured by Bruker was used in positive or negative mode. An acceleration voltage was set to 20 kV, and extraction delay time was set to 100 ns. Typically, 100 laser shots were averaged to improve a signal/noise ratio. All spectra were analyzed with Flex Analysis software (Bruker). A phosphorylation percentage was defined as an ionic strength ratio between a phosphorylated substance and a non-phosphorylated substance, and was calculated in accordance with existing description (Kang, J. -H. et al., (2007) J. Am. Soc. Mass Spectrom. 18, 106-112; and Kang J. -H. et al., (2007) J. Am. Soc. Mass Spectrom. 18, 1925-1931). In order to examine whether or not the PKCα specific substrate peptide could be phosphorylated by bladder cancer, culture cells derived from 5 different bladder cancers (KU-1, KU-7, T24, TCCSUP, and UMUC-3) were analyzed by MALDI-TOF MS. […] After performing incubation at 37° C. for 60 minutes, the resultant sample was analyzed by MALDI-TOF MS.

FKKQGSFAKKK-NH2 [substrate peptide]
phosphorylation percentage of the substrate peptide: high phosphorylation percentages
